{"source": "patent US7691628", "about": "“Use of Rev-erb family of receptors in screening” (Merck Patent GmbH)", "conditions_in_all_cases": "tags: pSG5-hRev-erbα, TnT T7 rabbit reticulocyte lysate; label: 32P", "key": {"[1]": {"target": "T1, Rev-erb alpha (NR1D1) (Homo sapiens, UniProt P20393 P20393:1-614)", "T1 sequence": "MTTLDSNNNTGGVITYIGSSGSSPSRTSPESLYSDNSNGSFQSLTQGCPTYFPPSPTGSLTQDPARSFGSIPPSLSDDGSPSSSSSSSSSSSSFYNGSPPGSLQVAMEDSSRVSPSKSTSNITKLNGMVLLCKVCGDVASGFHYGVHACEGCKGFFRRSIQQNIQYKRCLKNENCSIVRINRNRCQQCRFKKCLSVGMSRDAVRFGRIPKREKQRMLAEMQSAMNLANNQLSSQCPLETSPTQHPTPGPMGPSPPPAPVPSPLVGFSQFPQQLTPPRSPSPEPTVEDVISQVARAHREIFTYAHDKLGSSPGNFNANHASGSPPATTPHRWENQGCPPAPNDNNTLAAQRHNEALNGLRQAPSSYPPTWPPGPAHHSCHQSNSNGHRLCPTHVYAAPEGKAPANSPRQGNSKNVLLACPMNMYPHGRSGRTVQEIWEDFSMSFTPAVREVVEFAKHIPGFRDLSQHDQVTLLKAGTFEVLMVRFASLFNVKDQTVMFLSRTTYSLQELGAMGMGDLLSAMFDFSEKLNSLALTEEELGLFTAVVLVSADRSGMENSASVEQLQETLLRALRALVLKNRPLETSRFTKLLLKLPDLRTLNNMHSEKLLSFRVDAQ", "assay": "EMSA; no significant retardation"}, "[2]": {"target": "T1, Rev-erb alpha (NR1D1)", "assay": "EMSA; data not illustrated"}, "[3]": {"target": "T1, Rev-erb alpha (NR1D1)", "assay": "EMSA; two complexes, monomer and dimer; 10 mM Hepes, 80 mM KCl, polydIdC"}}}
{"binder": "C3P-DR2 (-104/-72) (dsDNA) DNA 1: GATCCTCATCTCCACTGGTCAGCAGGTGACCTTTGC DNA 2: GATCGGCAAAGGTCACCTGCTGACCAGTGGAGATGAG", "values": [{"measurement": "binding result", "setting": "[1]", "value": "no binding"}]}
{"binder": "HCIII-TaTaKO (dsDNA) DNA 1: GATCGATATAAAACAGGCAGGAACCCTC DNA 2: GATCGAGGGTTCCTGCCTGTTTTATATC", "values": [{"measurement": "binding result", "setting": "[2]", "value": "no binding"}]}
{"binder": "Rev-DR2 (dsDNA) DNA 1: GATCCGGAAAAGTGTGTCACTGGGGCACGA DNA 2: GATCTCGTGCCCCAGTGACACACTTTTCCG", "values": [{"measurement": "binding result", "setting": "[3]", "value": "binds"}]}
